# Data taken from the Immune Epitope Database (IEDB).
# Tests used:
# HLA-A*02:01 [1] = test: IEDB peptide-MHC binding, purified MHC/competitive/radioactivity; ≥ and ≤ were set here for values at or beyond the usual limits of such assays
# HLA-B*53:01 = test: IEDB peptide-MHC binding, purified MHC/competitive/fluorescence; ≥ and ≤ were set here for values at or beyond the usual limits of such assays; details: source organism: Human herpesvirus 4 type 2
# HLA-B*35:01 = test: IEDB peptide-MHC binding, purified MHC/direct/fluorescence; filed as Kd, often an IC50 or EC50 that approximates it; ≥ and ≤ were set here for values at or beyond the usual limits of such assays
# HLA-B*58:01 = test: as above
# HLA-C*06:02 = test: as above; details: source organism: Orthohantavirus sinnombreense
# HLA-A*02:19 = test: as above; details: source organism: Limestone Canyon virus
# HLA-B*46:01 = test: as above
# HLA-A*01:01 = test: as above
# HLA-B*08:01 = test: as above
# HLA-B*40:01 = test: as above
# HLA-B*15:01 = test: as above
# HLA-A*03:01 = test: as above
# HLA-B*07:02 = test: as above
# HLA-B*48:01 = test: as above
# HLA-B*18:01 = test: as above
# HLA-B*44:02 = test: as above
# HLA-B*57:01 = test: as above
# HLA-A*26:01 [2] = test: IEDB peptide-MHC binding, purified MHC/competitive/fluorescence; filed as Kd, often an IC50 or EC50 that approximates it; ≥ and ≤ were set here for values at or beyond the usual limits of such assays; details: source organism: Orthohantavirus sinnombreense
# HLA-B*15:17 [3] = test: as above; details: source organism: Orthohantavirus sinnombreense
# HLA-A*02:01 [4] = test: IEDB peptide-MHC binding, purified MHC/direct/fluorescence; filed as Kd, often an IC50 or EC50 that approximates it; ≥ and ≤ were set here for values at or beyond the usual limits of such assays
# HLA-A*31:01 = test: as above
# HLA-A*26:01 [5] = test: as above
# HLA-B*27:05 = test: as above
# HLA-A*11:01 = test: as above
# HLA-A*69:01 = test: as above
# HLA-A*24:02 [6] = test: as above
# HLA-B*15:09 = test: as above
# HLA-C*12:03 = test: as above
# HLA-B*08:02 = test: as above; details: source organism: Salmonella enterica subsp. enterica serovar Typhimurium str. LT2
# HLA-B*15:17 [7] = test: as above; details: source organism: Salmonella enterica
# HLA-B*08:03 = test: as above; details: source organism: Salmonella enterica subsp. enterica serovar Typhimurium str. LT2
# HLA-A*68:02 = test: IEDB peptide-MHC binding, purified MHC/competitive/fluorescence; filed as Kd, often an IC50 or EC50 that approximates it; ≥ and ≤ were set here for values at or beyond the usual limits of such assays; details: source organism: Salmonella enterica subsp. enterica serovar Typhi
# HLA-C*03:03 = test: IEDB peptide-MHC binding, purified MHC/direct/fluorescence; filed as Kd, often an IC50 or EC50 that approximates it; ≥ and ≤ were set here for values at or beyond the usual limits of such assays
# HLA-B*39:01 = test: as above; details: source organism: Yersinia enterocolitica subsp. enterocolitica 8081
# HLA-C*15:02 = test: as above; details: source organism: Mammarenavirus choriomeningitidis
# HLA-A*24:02 [8] = test: IEDB peptide-MHC binding, purified MHC/competitive/radioactivity; filed as Kd, often an IC50 or EC50 that approximates it; ≥ and ≤ were set here for values at or beyond the usual limits of such assays; details: source organism: Lassa virus Josiah
# HLA-A*29:02 = test: as above; details: source organism: Lassa virus Josiah
# HLA-A*23:01 = test: as above; details: source organism: Lassa virus Josiah
# [9] = source organism: Hepatitis B virus
# [10] = source organism: Orthohantavirus sinnombreense
# [11] = source organism: Escherichia coli O6
# [12] = source organism: Escherichia coli O157:H7
# [13] = source organism: Influenza A virus (A/Turkey/MO/24093/99(H1N2))
# [14] = source organism: Influenza A virus(A/swine/Henan/5/2004(H9N2))
# [15] = source organism: Influenza A virus (A/Puerto Rico/8/34/Mount Sinai(H1N1))
# [16] = source organism: Salmonella enterica
# [17] = source organism: Influenza A virus (A/Wisconsin/4755/1994(H1N1))
# [18] = source organism: Mycobacterium tuberculosis variant bovis BCG str. Pasteur 1173P2
# [19] = source organism: Vibrio cholerae
# [20] = source organism: Vibrio cholerae RC385
# [21] = source organism: Mammarenavirus lassaense
sequence,measurement,setting,value
RVASPTSGV,IC50,HLA-A*02:01 [1]; source organism: Homo sapiens,0.731 µM
ILSTLPETTV,IC50,HLA-A*02:01 [1]; [9],0.233 µM
QAYAAPQLF,IC50,HLA-B*53:01,0.0707 µM
FPFWGCFVS,Kd,HLA-B*35:01; source organism: Rickettsia prowazekii,0.002 µM
FRYKSRCYV,Kd,HLA-B*58:01; [10],≥ 20 µM
same,Kd,HLA-C*06:02,0.007 µM
same,Kd,HLA-A*02:19,≥ 20 µM
same,Kd,HLA-B*46:01; [10],≥ 20 µM
same,Kd,HLA-A*01:01; [10],≥ 20 µM
same,Kd,HLA-B*08:01; [10],≥ 20 µM
same,Kd,HLA-B*40:01; [10],≥ 20 µM
same,Kd,HLA-B*15:01; [10],≥ 20 µM
same,Kd,HLA-A*03:01; [10],≥ 20 µM
same,Kd,HLA-B*07:02; [10],≥ 20 µM
same,Kd,HLA-B*48:01; [10],≥ 20 µM
same,Kd,HLA-B*18:01; [10],≥ 20 µM
same,Kd,HLA-B*44:02; [10],≥ 20 µM
same,Kd,HLA-B*57:01; [10],≥ 20 µM
same,Kd,HLA-A*26:01 [2],≥ 20 µM
same,Kd,HLA-B*15:17 [3],≥ 20 µM
AHGWSTFYL,Kd,HLA-B*35:01; [11],2.1 µM
same,Kd,HLA-B*58:01; [12],≥ 20 µM
same,Kd,HLA-A*01:01; [11],3.15 µM
same,Kd,HLA-A*02:01 [4]; [12],≥ 20 µM
same,Kd,HLA-A*31:01; [12],≥ 20 µM
same,Kd,HLA-B*08:01; [12],≥ 20 µM
same,Kd,HLA-A*26:01 [5]; [12],≥ 20 µM
same,Kd,HLA-B*40:01; [12],≥ 20 µM
same,Kd,HLA-B*27:05; [12],≥ 20 µM
same,Kd,HLA-B*15:01; [12],≥ 20 µM
same,Kd,HLA-A*03:01; [12],≥ 20 µM
same,Kd,HLA-A*11:01; [12],≥ 20 µM
same,Kd,HLA-A*69:01; [11],1.54 µM
same,Kd,HLA-B*07:02; [12],≥ 20 µM
same,Kd,HLA-B*44:02; [12],≥ 20 µM
GMQIRGFVY,Kd,HLA-B*58:01; [13],4.75 µM
same,Kd,HLA-A*01:01; [13],≥ 20 µM
same,Kd,HLA-A*24:02 [6]; [13],≥ 20 µM
same,Kd,HLA-A*02:01 [4]; [13],≥ 20 µM
same,Kd,HLA-B*08:01; [13],≥ 20 µM
same,Kd,HLA-A*26:01 [5]; [14],≥ 20 µM
same,Kd,HLA-B*15:09; [14],≥ 20 µM
same,Kd,HLA-B*40:01; [13],≥ 20 µM
same,Kd,HLA-B*27:05; [13],≥ 20 µM
same,Kd,HLA-B*15:01; [15],0.26 µM
same,Kd,HLA-A*03:01; [15],1.13 µM
same,Kd,HLA-A*69:01; [13],≥ 20 µM
same,Kd,HLA-B*07:02; [13],≥ 20 µM
same,Kd,HLA-B*44:02; [13],≥ 20 µM
VATVNAVTV,Kd,HLA-C*12:03; source organism: Leishmania major strain Friedlin,0.018 µM
QLLWFHISCL,IC50,HLA-A*02:01 [1]; [9],0.393 µM
NVHRSQFAQ,Kd,HLA-B*58:01; [16],≥ 20 µM
same,Kd,HLA-B*46:01; [16],≥ 20 µM
same,Kd,HLA-A*01:01; [16],≥ 20 µM
same,Kd,HLA-A*02:01 [4]; [16],≥ 20 µM
same,Kd,HLA-A*31:01; [16],≥ 20 µM
same,Kd,HLA-B*08:01; source organism: Salmonella enterica subsp. enterica serovar Typhimurium str. LT2,≥ 20 µM
same,Kd,HLA-B*40:01; [16],≥ 20 µM
same,Kd,HLA-B*27:05; [16],≥ 20 µM
same,Kd,HLA-B*15:01; [16],≥ 20 µM
same,Kd,HLA-A*03:01; [16],≥ 20 µM
same,Kd,HLA-A*11:01; [16],≥ 20 µM
same,Kd,HLA-B*08:02,≥ 20 µM
same,Kd,HLA-B*07:02; [16],≥ 20 µM
same,Kd,HLA-B*48:01; [16],≥ 20 µM
same,Kd,HLA-B*18:01; [16],≥ 20 µM
same,Kd,HLA-B*15:17 [7],≥ 20 µM
same,Kd,HLA-B*08:03,≥ 20 µM
same,Kd,HLA-B*57:01; [16],≥ 20 µM
same,Kd,HLA-A*68:02,≥ 20 µM
YRYTYRCHR,Kd,HLA-B*58:01; [17],0.587 µM
same,Kd,HLA-B*46:01; [17],≥ 20 µM
same,Kd,HLA-A*01:01; [17],≥ 20 µM
same,Kd,HLA-A*24:02 [6]; [17],≥ 20 µM
same,Kd,HLA-A*02:01 [4]; [17],≥ 20 µM
same,Kd,HLA-B*08:01; [17],≥ 20 µM
same,Kd,HLA-B*15:09; source organism: Influenza A virus(A/swine/Shandong/fZC/2003(H9N2)),≥ 20 µM
same,Kd,HLA-B*40:01; [17],≥ 20 µM
same,Kd,HLA-B*27:05; [15],0.267 µM
same,Kd,HLA-B*15:01; [17],≥ 20 µM
same,Kd,HLA-A*03:01; [17],≥ 20 µM
same,Kd,HLA-A*11:01; [17],≥ 20 µM
same,Kd,HLA-A*69:01; [17],≥ 20 µM
same,Kd,HLA-B*07:02; [17],≥ 20 µM
same,Kd,HLA-B*44:02; [17],≥ 20 µM
FHYQDPFPL,Kd,HLA-C*03:03; source organism: Yersinia pestis Nepal516,1.39 µM
same,Kd,HLA-B*15:09; source organism: Yersinia enterocolitica subsp. enterocolitica 8081,≤ 0.001 µM
same,Kd,HLA-B*39:01,≤ 0.001 µM
YVIEPAAGL,Kd,HLA-C*03:03; [18],≤ 0.001 µM
same,Kd,HLA-C*12:03; [18],0.023 µM
FLPNDFFPSA,IC50,HLA-A*02:01 [1]; [9],0.0021 µM
GLRWHVRAF,Kd,HLA-B*58:01; [19],≥ 20 µM
same,Kd,HLA-A*01:01; [19],≥ 20 µM
same,Kd,HLA-A*24:02 [6]; [19],≥ 20 µM
same,Kd,HLA-A*02:01 [4]; [19],≥ 20 µM
same,Kd,HLA-A*31:01; [19],≥ 20 µM
same,Kd,HLA-A*26:01 [5]; [20],≥ 20 µM
same,Kd,HLA-B*15:09; [20],≥ 20 µM
same,Kd,HLA-B*40:01; [19],≥ 20 µM
same,Kd,HLA-B*27:05; [19],≥ 20 µM
same,Kd,HLA-B*15:01; [19],0.0794 µM
same,Kd,HLA-A*03:01; [19],≥ 20 µM
same,Kd,HLA-A*11:01; [19],≥ 20 µM
same,Kd,HLA-A*69:01; [19],≥ 20 µM
same,Kd,HLA-B*07:02; [19],0.407 µM
same,Kd,HLA-B*44:02; [19],≥ 20 µM
YLISIFLHL,Kd,HLA-A*02:01 [4]; [21],0.0809 µM
same,Kd,HLA-C*15:02,≥ 20 µM
same,Kd,HLA-A*69:01; [21],0.802 µM
same,Kd,HLA-A*24:02 [8],≥ 67.7 µM
same,Kd,HLA-A*29:02,0.0997 µM
same,Kd,HLA-A*23:01,0.000422 µM
